Source: US20130095503A1, “SERUM SPLA2-IIA AS DIAGNOSIS MARKER FOR PROSTATE AND LUNG CANCER” (UNIVERSITY OF CINCINNATI, priority 2010, published 2013)

Legend:
LNCaP-AI cells = test: MTT growth assay in LNCaP-AI cells; type: cell-based, human; conditions: 10% stripped medium, about 4 days, FIG. 11
Procedure: The role of sPLA2-IIA in the growth of prostate cancer cells was studied by MTT assay. Specifically, LNCaP-AI cells were cultured in 10% stripped medium in the presence of EGF (ng/mL) or sPLA2-IIA (ng/mL) for about 4 days, followed by performance of an MTT assay. The role of sPLA2-IIA on prostate cancer cell growth was also studied by blocking the activity of sPLA2-IIA in LNCaP-AI cells. The activity of sPLA2-IIA was blocked in LNCaP-AI cells by administering the peptide inhibitor cFLYSYR (μM) or c(NapA)R (μM) for about 4 days, followed by performance of an MTT assay.

HER3 = biological target: T1, HER3 (Homo sapiens, UniProt P21860); test: Western blot of P-HER3 in lung cancer cells treated with sPLA2-IIA; type: cell-based; conditions: A549 and H1975 cells (FIG. 22B: H1975), 0-0.5 μg/mL, 2 H, 10% FBS
T1 construct: endogenous in cells; host or cells: H1975 lung cancer cells
Procedure: (§1) A549 and H1975 lung cancer cells were starved in 1% stripped medium for 24 H. The cells were then treated with recombinant human sPLA2-IIA (0.5 μg/mL) with various concentrations (0, 0.125, 0.25, or 0.5 μg/mL) of sPLA2-IIA for 2 H in medium containing 10% fetal bovine serum (hereinafter “FBS”). Cell extracts were prepared and subjected to western blot analysis for HER2, P-HER2, HER3, and P-HER3. Western blot analysis was conducted as previously described.

HER2 [1] = biological target: T2, HER2 (Homo sapiens, UniProt P04626); test: Western blot of P-HER2 in LNCaP-AI prostate cancer cells treated with sPLA2-IIA; type: cell-based; parameters: endogenous in cells; conditions: 0.5 μg/mL for 0-180 min or 0-0.5 μg/mL for 2 H, FIG. 23
Procedure: Additionally, LNCaP-AI prostate cancer cells were starved in 1% stripped medium for 24 H. The cells were then treated with recombinant human sPLA2-IIA (0.5 μg/mL) for 30 to 180 minutes (0, 30, 60, 120, or 180 min) or with various concentrations of sPLA2-IIA (0, 0.125, 0.25, or 0.5 μg/mL) for 2 H in medium containing 10% FBS. Cell extracts were prepared and subjected to western blot analysis for P-HER2 and HER2. Western blot analysis was conducted as previously described.

HER2 [2] = biological target: T2, HER2; test: Western blot of P-HER2 in lung cancer cells treated with sPLA2-IIA; type: cell-based; parameters: endogenous in cells; host or cells: A549 lung cancer cells; conditions: A549 and H1975 cells (FIG. 22A: A549), 0-0.5 μg/mL, 2 H, 10% FBS
Procedure: as §1

T1 sequence (P21860 20-1342): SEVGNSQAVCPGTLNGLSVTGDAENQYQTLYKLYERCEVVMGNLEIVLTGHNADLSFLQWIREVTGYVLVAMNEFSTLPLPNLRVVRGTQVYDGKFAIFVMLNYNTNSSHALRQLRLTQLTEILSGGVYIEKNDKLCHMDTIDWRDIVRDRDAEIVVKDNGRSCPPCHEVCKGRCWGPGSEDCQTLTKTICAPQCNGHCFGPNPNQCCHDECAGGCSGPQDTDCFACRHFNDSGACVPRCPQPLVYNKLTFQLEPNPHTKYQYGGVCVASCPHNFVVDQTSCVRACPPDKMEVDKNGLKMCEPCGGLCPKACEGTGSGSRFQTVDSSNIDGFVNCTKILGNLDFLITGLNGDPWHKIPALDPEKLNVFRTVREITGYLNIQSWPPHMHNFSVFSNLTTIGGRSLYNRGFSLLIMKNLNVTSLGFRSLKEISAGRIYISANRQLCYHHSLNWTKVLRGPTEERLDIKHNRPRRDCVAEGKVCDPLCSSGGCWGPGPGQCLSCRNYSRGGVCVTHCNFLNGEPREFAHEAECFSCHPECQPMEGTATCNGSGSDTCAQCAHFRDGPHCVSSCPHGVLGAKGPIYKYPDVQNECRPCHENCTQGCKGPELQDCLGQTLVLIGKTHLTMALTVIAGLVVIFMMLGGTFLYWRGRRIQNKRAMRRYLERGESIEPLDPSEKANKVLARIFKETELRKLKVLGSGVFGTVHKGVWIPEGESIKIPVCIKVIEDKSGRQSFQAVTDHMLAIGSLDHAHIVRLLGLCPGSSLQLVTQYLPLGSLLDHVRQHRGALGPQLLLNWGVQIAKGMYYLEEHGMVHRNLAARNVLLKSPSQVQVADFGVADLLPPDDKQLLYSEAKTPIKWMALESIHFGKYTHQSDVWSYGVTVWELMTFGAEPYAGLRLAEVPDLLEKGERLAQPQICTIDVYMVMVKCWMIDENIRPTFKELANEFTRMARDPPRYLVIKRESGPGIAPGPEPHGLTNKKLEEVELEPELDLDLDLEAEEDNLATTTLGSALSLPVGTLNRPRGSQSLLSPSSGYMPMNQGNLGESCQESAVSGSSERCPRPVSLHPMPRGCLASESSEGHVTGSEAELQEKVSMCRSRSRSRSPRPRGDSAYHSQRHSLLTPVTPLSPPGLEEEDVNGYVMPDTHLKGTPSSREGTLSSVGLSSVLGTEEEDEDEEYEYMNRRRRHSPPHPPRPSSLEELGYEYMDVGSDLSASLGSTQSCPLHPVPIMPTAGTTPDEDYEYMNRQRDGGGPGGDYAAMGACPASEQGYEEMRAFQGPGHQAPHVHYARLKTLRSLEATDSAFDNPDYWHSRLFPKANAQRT

B1: recombinant human sPLA2-IIA: recombinant human secretory phospholipase A2-IIA (protein, UniProt P14555 21-144, looked up)
Phospholipase A2, membrane …: NLVNFHRMIKLTTGKEAALSYGFYGCHCGVGGRGSPKDATDRCCVTHDCCYKRLEKRGCGTKFLSYKFSNSGSRITCAKQDSCRSQLCECDKAAATCFARNKTTYNKKYQYYSNKHCRGSTPRC
prostate cancer cell growth (MTT) (LNCaP-AI cells): stimulates prostate cancer cell growth
phosphorylation of HER3 (HER3): induced phosphorylation
phosphorylation of HER2 (HER2 [1]): induced phosphorylation
phosphorylation of HER2 (HER2 [2]): induced phosphorylation
